{
  "source": "patent US10328148B2",
  "about": "“Protein drug formulations and packages” (Purdue Research Foundation, priority 2010, dated 2019)",
  "molecules": {"B1": {"name": "Protein G: free Protein G, immunoglobulin-binding protein used as polyamino acid ligand (protein)", "chain": "TYKLILNGKTLKGETTTEAVDAATAEKVFKQYANDNGVDGEWTYDDATKTFTVTEKPEVIDASELTPAVTTYKLVINGKTLKGETTTEAVDAATAEKVFKQYANDNGVDGEWTYDDATKTFTVTEKPEVIDASELTPAVTTYKLVINGKTLKGETTTKAVDAETAEKAFKQYANDNGVDGVWTYDDATKTFTVTE"}},
  "system": "IgG",
  "assay": "HP-SEC of IgG with free Protein A or Protein G: complex formation and agitation-induced aggregation",
  "type": "physicochemical",
  "conditions": "IgG:Protein A or G ratio 1:4, RT 2 h",
  "procedure": "Effect of proteins A and G on aggregation of IgG. High performance size exclusion chromatography (HP-SEC) is used to verify that IgG binds with Protein A or Protein G completely. 50 µL aliquots are injected to a Tosoh TSK G 13000 SWXL Gel 3000 column ([…]×7.8 mm) and separated at a flow rate of 0.5 mL/min. The mobile phase contains 50 mM potassium phosphate and 100 mM K2SO4 at pH 7.1. The relative percentage of IgG monomer and dimer are calculated in triplicate as a percentage of the total chromatographic peak area at 280 nm. Fresh IgG is incubated with free Protein A or free Protein G, respectively, at IgG:Protein A or G ratio of 1:4 at RT for 2 h before being subjected to agitation. […] Effect of agitation of protein A and protein G complexes of IgG. The prior Example 1 is repeated, subjecting the IgG+Protein A or IgG+Protein G to agitation on a shaker at room temperature for 44 h.",
  "data": [
    {"molecule": "B1", "values": [
      {"measurement": "Complex formation with IgG by HP-SEC", "result": "formation of IgG-Protein A and IgG-Protein G complexes"}
    ]}
  ]
}
